# Residue numbers refer to the chain shown, from its start.
# T1: GST-MBSLZ (amino acids 847-1030 of MBS, includes the leucine zipper domain) (human, UniProt O14974 847-1030)
# T1 construct: range 847-1030; also called wild type C terminal MBS; not shown: glutathione S-transferase (GST) tag
# T1 sequence (looked up): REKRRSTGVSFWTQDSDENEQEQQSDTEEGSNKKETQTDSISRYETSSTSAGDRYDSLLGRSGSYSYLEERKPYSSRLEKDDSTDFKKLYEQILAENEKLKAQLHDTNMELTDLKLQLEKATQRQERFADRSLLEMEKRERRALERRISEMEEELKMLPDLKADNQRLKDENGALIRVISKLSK
# T2: GFP-MBSLZM (full-length GFP-MBS with the C-terminal domain of GST-MBSLZmutant) (human, UniProt O14974 1-1030)
# T2 construct: also called GFP-MBSLZ mutant; not shown: GFP of the pEGFP vector
# T2 sequence (looked up): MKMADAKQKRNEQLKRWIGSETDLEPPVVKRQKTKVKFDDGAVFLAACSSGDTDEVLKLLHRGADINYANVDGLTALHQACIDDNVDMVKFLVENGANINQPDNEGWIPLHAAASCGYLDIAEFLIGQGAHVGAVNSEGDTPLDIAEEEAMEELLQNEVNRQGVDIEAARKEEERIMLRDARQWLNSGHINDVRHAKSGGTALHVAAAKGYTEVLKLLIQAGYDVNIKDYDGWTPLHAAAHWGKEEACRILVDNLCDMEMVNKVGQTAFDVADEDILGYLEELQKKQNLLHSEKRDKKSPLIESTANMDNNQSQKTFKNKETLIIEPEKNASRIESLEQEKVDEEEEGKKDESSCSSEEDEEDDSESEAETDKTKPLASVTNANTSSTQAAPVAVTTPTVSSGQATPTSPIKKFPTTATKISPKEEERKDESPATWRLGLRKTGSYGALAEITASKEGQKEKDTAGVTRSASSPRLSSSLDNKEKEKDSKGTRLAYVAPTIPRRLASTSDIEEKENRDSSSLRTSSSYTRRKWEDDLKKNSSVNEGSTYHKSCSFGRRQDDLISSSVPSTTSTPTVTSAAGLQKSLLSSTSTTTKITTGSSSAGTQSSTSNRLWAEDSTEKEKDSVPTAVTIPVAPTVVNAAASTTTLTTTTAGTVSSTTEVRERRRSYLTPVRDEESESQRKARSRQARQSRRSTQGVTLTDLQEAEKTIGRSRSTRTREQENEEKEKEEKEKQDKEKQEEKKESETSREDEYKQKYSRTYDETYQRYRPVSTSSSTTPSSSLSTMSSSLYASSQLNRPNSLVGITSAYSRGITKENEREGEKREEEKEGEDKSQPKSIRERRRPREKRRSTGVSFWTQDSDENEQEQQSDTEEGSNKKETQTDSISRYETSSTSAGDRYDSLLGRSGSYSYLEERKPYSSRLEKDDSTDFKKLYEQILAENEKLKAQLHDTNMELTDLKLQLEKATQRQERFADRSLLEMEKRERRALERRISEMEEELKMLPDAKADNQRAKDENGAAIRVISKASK
# T3: Myosin binding subunit (MBS) of myosin phosphatase, endogenous in human vascular smooth muscle cells (human, UniProt O14974 1-1030, limits assumed)
# T3 construct: In lysate it stands in the myosin phosphatase complex with PP1 and the 20 kD subunit; also called MYPT1
# T3 sequence (looked up): T2 sequence (looked up) with A1007L, A1014L, A1021L, A1028L
# B1: 6×his CC2 (polyhistidine fusion of M-RIP coiled-coil domain 2) (other)
# chain: AAMEETHQKKIEDLQRQHQRELEKLREEKDRLLAEETAATISAIEAMKNAHREEMERELEKSQRSQISSVNSDVEALRRQYLEELQSVQRELEVLSEQYSQKCLENAHLAQALEAERQALRQCQRENQELNAHNQELNNRLAAEITRLRTL
# notes: not shown: polyhistidine (6xhis) tag of the pQE vector
# B2: MBS-Cterm-pGAD424 (human MBS base pairs 2043-3090 fused to the Gal4 DNA activating domain) (other, UniProt O14974 682-1030, looked up, not shown: large carriers)
# chain: RKARSRQARQSRRSTQGVTLTDLQEAEKTIGRSRSTRTREQENEEKEKEEKEKQDKEKQEEKKESETSREDEYKQKYSRTYDETYQRYRPVSTSSSTTPSSSLSTMSSSLYASSQLNRPNSLVGITSAYSRGITKENEREGEKREEEKEGEDKSQPKSIRERRRPREKRRSTGVSFWTQDSDENEQEQQSDTEEGSNKKETQTDSISRYETSSTSAGDRYDSLLGRSGSYSYLEERKPYSSRLEKDDSTDFKKLYEQILAENEKLKAQLHDTNMELTDLKLQLEKATQRQERFADRSLLEMEKRERRALERRISEMEEELKMLPDLKADNQRLKDENGALIRVISKLSK
# notes: domain: MBS-Cterm (base pairs 2043-3090)
# B3: GST-M-RIP545-878 (RhoA-binding domain plus the remaining carboxy-terminus of CC2) (other)
# chain: AEFRPIQQALAQERVGGVGPADTHEPLRPEAESGELERERARRREERRKRFGMLDATDGPGTEDAALRMEVDRSPGLPMSDLKTHNVHVEIEQRWHQVETTPLREEKQVPIAPVHLSSEDGGDRLSTHELTSLLEKELEQSQKEASDLLEQNRLLQDQLRVALGREQSAREGYVLQATCERGFAAMEETHQKKIEDLQRQHQRELEKLREEKDRLLAEETAATISAIEAMKNAHREEMERELEKSQRSQISSVNSDVEALRRQYLEELQSVQRELEVLSEQYSQKCLENAHLAQALEAERQALRQCQRENQELNAHNQELNNRLAAEITRLRTL
# notes: not shown: glutathione S-transferase (GST) tag of the pGEX vector
# B4: GST-M-RIP545-823 (M-RIP RhoA-binding domain) (other)
# chain: AEFRPIQQALAQERVGGVGPADTHEPLRPEAESGELERERARRREERRKRFGMLDATDGPGTEDAALRMEVDRSPGLPMSDLKTHNVHVEIEQRWHQVETTPLREEKQVPIAPVHLSSEDGGDRLSTHELTSLLEKELEQSQKEASDLLEQNRLLQDQLRVALGREQSAREGYVLQATCERGFAAMEETHQKKIEDLQRQHQRELEKLREEKDRLLAEETAATISAIEAMKNAHREEMERELEKSQRSQISSVNSDVEALRRQYLEELQSVQRELEVLS
# notes: as for B3
# How the values were obtained:
# [1] = target: T1, GST-MBSLZ (amino acids 847-1030 of MBS, …); experiment: purified protein interaction, His fusions on Ni-NTA beads, anti-GST immunoblot
# Experimental: FIG. 4F show a series of immunoblots representing a purified protein interaction assay in which similar quantities of 6×his CC1, CC2, and CC3 bound to Ni-NTA beads were incubated with purified soluble GST-MBSLZ or GST-MBSLZ mutant. Bound GST-MBSLZ and GST-MBSLZ mutant were detected using anti-GST antibodies.
# (§1) For fusion protein interactions with proteins from cell lysates, confluent cells were rinsed twice with ice cold PBS, lysed in buffer A, incubated for 1 hour at room temperature, then centrifuged at 14,000 rpm for 20 minutes at 40C. The supernatant was mixed with GST-fusion proteins prebound to glutathione agarose beads. After overnight incubation at 40C, the beads were washed with buffer C, eluted with SDS sample buffer and bound proteins were analyzed by immunoblotting. For fusion protein interactions with purified proteins, fusion proteins immobilized on beads were incubated in buffer A for one hour with purified soluble protein previously eluted from beads. After incubation, the beads were washed three times with buffer C, bound proteins were eluted in SDS sample buffer and analyzed by immunoblotting with anti-GST antibodies.
# [2] = target: T4, MBS-Cterm-pGBT9 (human MBS base pairs 2043-3090 fused to the Gal4 DNA binding domain) (human, UniProt P04386 1-147; O14974 682-1030); experiment: yeast two-hybrid
# T4 construct: Bait of the yeast 2-hybrid screen
# Text: Human MBS-Cterm, base pairs 2043-3090 (kind gift of Dr. Masaaki Ito) was cloned into the EcoR1 site of yeast 2-hybrid vectors pGBT9 and pGAD424, expressing MBS fusion proteins with Gal4 DNA binding domain and DNA activating domain, respectively. Expression of MBS-Cterm in yeast was confirmed by dimerization when MBS-Cterm-pGBT9 and MBS-Cterm-pGAD424 were coexpressed in yeast (data not shown). Yeast strain Y190 was sequentially transformed with MBSCterm- pGBT9 and a human aorta cDNA library (Clontech) using the lithium acetate method. Interactions were identified by growth on selective media, and confirmed by colony lift filter β-galactosidase assay. The cDNA library plasmid was extracted from confirmed positive yeast colonies, and sequenced at the Tufts Core Sequencing Facility.
# [3] = target: T2, GFP-MBSLZM (full-length GFP-MBS with …); experiment: GST pull-down from lysate of transfected COS1 cells, anti-MBS immunoblot
# [4] = target: T3, Myosin binding subunit (MBS) of myosin …; experiment: GST pull-down from vascular smooth muscle cell lysate, anti-MBS immunoblot
# Text: Also shown is the same M-RIP domains expressed in COS1 cells as Flag-tagged proteins and immunoprecipitated with M2 antibody. The MBS immunoblot of the immunopellets is shown in the middle panel and the total cellular MBS content from each lysate used for immunoprecipitation is shown in the lower panel. Molecular weight size markers in kD are shown on the right.
# Identical results were obtained in heterologous expression studies with epitope-tagged constructs for various M-RIP domains expressed in COS1 cells (FIG. 4B).
# as §1
binder,measurement,setting,value
B1,binding result,[1],binds
B2,binding result,[2],binds
B3,binding result,[3],no binding
B4,binding result,[4],no binding
